The results in this text go back to article PMC3276066.

Broadly, the stoichiometry N is the number of molecules, sites or subunits per partner or assembly.

The target of the experiment is Encephalitozoon cuniculi TATA box binding protein, full length (Encephalitozoon cuniculi).

Regarding “Encephalitozoon cuniculi Mot1 N-terminal domain (HEAT domain, residues 1–779) (domain or fragment)”, the stoichiometry N is 1 Mot1:TBP.
